Measured values: US20100221257A1 (AstraZeneca / MedImmune, published 2010)
Numbering of substitutions follows the chain as printed. Blank lines part the entries; values can stand above or below the binder they belong to.

Experiments:
[1] = target: Antibody 6 (Eu3+ cryptate labelled, Example 5); assay: HTRF competition: unlabelled test protein against biotin labelled human IL-1R1/Fc binding to cryptate labelled antibody
Procedure: (§1) Antibody was cryptate labelled with Eu³′ Cryptate labelling kit according to the manufacturer's instructions (CisBio International Cat No. 62EUSPEA) and IL-1R1/Fc (SEQ ID NO: 134, see Material and Methods) was Biotin labelled with EZ Link Sulfo-NHS-Biotin (Perbio Cat No. 21335) according to the manufacturer's instructions. Assay conditions were 0.25 nM Cryptate labelled antibody, 0.3 nM biotin labelled IL-1R1/Fc, 2.5 nM streptavidin XL^{ent!} (CisBio International Cat. No. 611SAXLB) in 1×D-PBS, 0.1% BSA, 0.4M potassium fluoride in a total volume of […] in a 384 well shallow well costar plate (3676). To the assay a dilution series (from maximum of 100 nM to 0.0017 nM) of test proteins was added and the assay incubated for 3 hours at room temperature. FRET signal was detected using a PerkinElmer EnVision plate reader using a 320 nm excitation filter and 620 nm and 665 nm emission filters. Results were calculated from the 665/620 ratio as a percentage of specific binding (signal with no competitor antigen). Results were analysed with Prism (GraphPad Software) using the sigmoidal dose response model.
Antibody binding of chimeric molecules was tested in an HTRF (Homogeneous Time Resolved Fluorescence) competition assay. Molecules which bound antibody at the same paratope as human IL-1R1 inhibited the binding interaction, leading to a reduction in signal. From inhibition curves IC₅₀ values for human IL-1R1, mouse IL-1R1 and chimeric molecules were calculated (Table 12). […] Chimeras that gave similar IC₅₀ values to native human IL-1R1 still contained the epitope.

[2] = target: Antibody 6 (Eu3+ cryptate labelled, Example 5); assay: HTRF competition assay, against human IL-1R1 as reference
Procedure: as §1
Antibody binding of chimeric molecules was tested in an HTRF (Homogeneous Time Resolved Fluorescence) competition assay. […] From inhibition curves IC₅₀ values for human IL-1R1, mouse IL-1R1 and chimeric molecules were calculated (Table 12). […]

[3] = target: T1, human histidine tagged (HIS) IL1RFc fusion protein (human); assay: HTRF receptor-ligand assay, IgG inhibiting HIS FLAG IL-1Ra binding to cryptate labelled human HIS IL1RFc
T1 construct: Biotinylated or cryptate labelled in some assays; also called human HIS IL1RFc; huIL-1R1-Fc
Procedure: The ability of lead antibodies to inhibit IL-1Ra to IL-1R1 was assessed in a receptor-ligand binding HTRF® (Homogeneous Time-Resolved Fluorescence) assay format for inhibition of HIS FLAG tagged human IL1Ra (In house, E. Coli expressed; HIS FLAG IL-1RA) binding to human histidine tagged (HIS) IL1RFc fusion protein (in house), as described in the Materials and methods section.
A titration of inhibitor was used in order to establish the clone potency as measured by IC₅₀ values in the assay. All dilutions were carried out in assay buffer as for ligand binding assay above. 5 μl of a titration of inhibitor was added to a 384 well low volume assay plate (Costar 3676). This was then followed by addition of 0.4 nM cryptate labelled HIS IL1RFc. Assay plates were then sealed and incubated at room temperature in dark for 1 hour.

[4] = target: T2, human IL-1R1, endogenous on human cells (HeLa cells; whole blood) (human, UniProt P14778 18-569); assay: cell-based or functional assay
T2 sequence (looked up): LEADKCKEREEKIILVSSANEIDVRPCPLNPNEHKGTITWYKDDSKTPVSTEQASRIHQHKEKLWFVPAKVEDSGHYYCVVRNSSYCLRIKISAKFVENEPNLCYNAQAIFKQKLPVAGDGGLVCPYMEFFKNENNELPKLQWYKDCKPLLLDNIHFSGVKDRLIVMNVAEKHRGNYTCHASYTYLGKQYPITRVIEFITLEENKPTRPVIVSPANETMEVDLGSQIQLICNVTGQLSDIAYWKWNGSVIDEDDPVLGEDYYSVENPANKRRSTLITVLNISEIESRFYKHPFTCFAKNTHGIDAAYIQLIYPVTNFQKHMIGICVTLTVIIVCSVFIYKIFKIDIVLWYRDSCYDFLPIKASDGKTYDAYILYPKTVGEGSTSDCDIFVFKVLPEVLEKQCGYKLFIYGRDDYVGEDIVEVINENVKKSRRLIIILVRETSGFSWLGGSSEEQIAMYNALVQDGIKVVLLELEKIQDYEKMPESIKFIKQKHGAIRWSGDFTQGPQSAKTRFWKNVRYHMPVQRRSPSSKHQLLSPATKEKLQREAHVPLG

[5] = target: T2, human IL-1R1, endogenous on human cells …; assay: cell-based or functional assay; remark: listed apart in the source
[6] = target: T3, cynomolgus IL-1R1, endogenous on CYNOM-K1 cells (cynomolgus monkey, UniProt A0A7N9CMI5 18-569); assay: cell-based or functional assay
T3 sequence: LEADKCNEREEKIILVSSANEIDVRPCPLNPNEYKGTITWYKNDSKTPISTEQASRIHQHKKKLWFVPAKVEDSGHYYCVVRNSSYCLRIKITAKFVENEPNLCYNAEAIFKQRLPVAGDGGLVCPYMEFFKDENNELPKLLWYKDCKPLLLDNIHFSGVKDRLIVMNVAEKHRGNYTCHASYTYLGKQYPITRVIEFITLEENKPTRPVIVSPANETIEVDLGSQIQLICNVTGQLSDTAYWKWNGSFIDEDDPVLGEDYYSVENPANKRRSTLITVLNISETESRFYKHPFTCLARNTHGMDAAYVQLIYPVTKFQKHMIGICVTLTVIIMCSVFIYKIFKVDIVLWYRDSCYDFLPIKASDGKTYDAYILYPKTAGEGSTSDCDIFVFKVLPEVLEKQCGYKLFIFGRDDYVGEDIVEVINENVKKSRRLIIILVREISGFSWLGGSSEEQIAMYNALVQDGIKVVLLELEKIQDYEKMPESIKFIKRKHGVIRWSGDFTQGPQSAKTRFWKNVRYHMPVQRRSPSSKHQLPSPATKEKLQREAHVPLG

IC50 [1]: 0.147 nM
B1: MoD3 HuD1-D2 IL1R1 (Fc fusion, human;mouse, UniProt P14778 18-227, looked up, not shown: a dimerising Fc or GST)
chain: LEADKCKEREEKIILVSSANEIDVRPCPLNPNEHKGTITWYKDDSKTPVSTEQASRIHQHKEKLWFVPAKVEDSGHYYCVVRNSSYCLRIKISAKFVENEPNLCYNAQAIFKQKLPVAGDGGLVCPYMEFFKNENNELPKLQWYKDCKPLLLDNIHFSGVKDRLIVMNVAEKHRGNYTCHASYTYLGKQYPITRVIEFITLEENKPTRPVILSPRNETIEADPGSMIQLICNVTGQFSDLVYWKWNGSEIEWNDPFLAEDYQFVEHPSTKRKYTLITTLNISEVKSQFYRYPFICVVKNTNIFESAHVQLIYPVPDFK
notes: range 1-227;range 231-338

fold higher IC50 than human IL-1R1 [2]: > 3 fold | IC50 [1]: 0.637 nM
B2: MoD2c IL1R1 (Fc fusion, human;mouse, UniProt P14778 18-177, looked up, not shown: a dimerising Fc or GST)
chain: LEADKCKEREEKIILVSSANEIDVRPCPLNPNEHKGTITWYKDDSKTPVSTEQASRIHQHKEKLWFVPAKVEDSGHYYCVVRNSSYCLRIKISAKFVENEPNLCYNAQAIFKQKLPVAGDGGLVCPYMEFFKNENNELPKLQWYKDCKPLLLDNIHFSGVKDKLIVMNVAEKHRGNYTCHASYTYLGKQYPITRVIEFITLEENKPTRPVIVSPANETMEVDLGSQIQLICNVTGQLSDIAYWKWNGSVIDEDDPVLGEDYYSVENPANKRRSTLITVLNISEIESRFYKHPFTCFAKNTHGIDAAYIQLIYPVTNFQK
notes: also called chimera without loop d2-e2

IC50 [1]: 0.337 nM
B3: MoD3b IL1R1 (Fc fusion, human;mouse, UniProt P14778 18-309, looked up, not shown: a dimerising Fc or GST)
chain: LEADKCKEREEKIILVSSANEIDVRPCPLNPNEHKGTITWYKDDSKTPVSTEQASRIHQHKEKLWFVPAKVEDSGHYYCVVRNSSYCLRIKISAKFVENEPNLCYNAQAIFKQKLPVAGDGGLVCPYMEFFKNENNELPKLQWYKDCKPLLLDNIHFSGVKDRLIVMNVAEKHRGNYTCHASYTYLGKQYPITRVIEFITLEENKPTRPVIVSPANETMEVDLGSQIQLICNVTGQLSDIAYWKWNGSVIDEDDPVLGEDYYSVENPANKRRSTLITVLNISEIESRFYKHPFICVVKNTNIFESAHVQLIYPVTNFQK

fold higher IC50 than human IL1R1 [2]: 26 fold | IC50 [1]: 4.6 nM
B4: MoD2a IL1R1 (Fc fusion, human;mouse, UniProt P14778 18-122, looked up, not shown: a dimerising Fc or GST)
chain: B2 chain with N106S, A107T, I110T, K112P, K114R, P116H, V117I, K163R
notes: range 1-122;range 126-137;range 135-336; also called chimera without human beta strand a2

IC50 [1]: 0.268 nM
B5: MoD3a2 IL1R1 (Fc fusion, human;mouse, UniProt P14778 18-272, looked up, not shown: a dimerising Fc or GST)
chain: B2 chain with K163R, V256F, G258A, Y262Q, S263F, N266H, A268S, N269T, R272K
notes: range 1-272;range 276-292;range 290-336

IC50 [3]: 0.1 nM | IC50, inhibition of IL-1 beta induced IL-8 release in HeLa cells (IgG1) [4]: 0.0078 nM
B6: Antibody 6 IgG1 (antibody, V domains shown)
VH: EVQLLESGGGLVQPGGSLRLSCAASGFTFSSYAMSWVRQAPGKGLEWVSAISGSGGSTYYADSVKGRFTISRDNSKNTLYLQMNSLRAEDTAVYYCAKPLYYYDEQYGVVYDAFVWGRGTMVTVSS
VL: QSVLTQPPSVSGAPGQRVTISCTGSSSNIGAGYDVHWYQQLPGTAPKLLIYGDTHRPSGVPDRFSGSKSGTSASLVIAGLQAEDEADYYCQSYDTVRLHHVFGGGTKLTVL
notes: Non-germlined IgG1, lambda light chain

IC50, inhibition of human IL-1β induced IL-8 release from HeLa cells [5]: 22 nM
B7: Antibody 4 IgG1 (antibody, V domains shown)
VH: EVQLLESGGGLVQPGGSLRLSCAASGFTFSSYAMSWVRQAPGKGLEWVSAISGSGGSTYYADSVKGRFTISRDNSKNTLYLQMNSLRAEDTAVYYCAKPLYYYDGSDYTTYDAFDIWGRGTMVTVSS
VL: B6 VL with V96S, R97L, L98S, H99G, H100S, V101L

IC50 [3]: 0.156 nM | IC50, inhibition of IL-1 beta induced IL-8 release in HeLa cells (IgG1) [4]: 0.0293 nM
B8: Antibody 8 IgG1 (antibody, V domains shown)
VH: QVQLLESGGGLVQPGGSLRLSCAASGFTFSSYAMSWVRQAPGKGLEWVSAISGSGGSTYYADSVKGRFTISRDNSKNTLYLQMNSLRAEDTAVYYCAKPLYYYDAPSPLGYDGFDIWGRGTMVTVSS
VL: B6 VL with V96H, R97L, L98V, H99A
notes: as for B6

IC50 [3]: 0.186 nM | IC50, inhibition of IL-1 beta induced IL-8 release in HeLa cells (IgG1) [4]: 0.032 nM
B9: Antibody 5 IgG1 (antibody, V domains shown)
VH: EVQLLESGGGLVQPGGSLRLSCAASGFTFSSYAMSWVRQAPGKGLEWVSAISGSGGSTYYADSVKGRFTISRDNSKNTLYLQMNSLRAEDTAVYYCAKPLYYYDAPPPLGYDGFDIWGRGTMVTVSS
VL: B6 VL with V96A, R97G, L98G, H99G, V101H
notes: as for B6

IC50 [3]: 0.168 nM | IC50, inhibition of IL-1 beta induced IL-8 release in HeLa cells (IgG1) [4]: 0.0426 nM
B10: Antibody 7 IgG1 (antibody, V domains shown)
VH: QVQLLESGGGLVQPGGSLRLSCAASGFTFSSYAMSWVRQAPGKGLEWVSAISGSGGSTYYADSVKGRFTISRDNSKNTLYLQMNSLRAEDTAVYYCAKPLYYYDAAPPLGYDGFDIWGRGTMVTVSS
VL: B6 VL with V96D, R97A, L98A, H99R, V101Q
notes: as for B6

IC50, inhibition of IL-1β induced IL-8 release from CYNOM-K1 cells, experiment 1 [6]: 1.2 nM | IC50, inhibition of IL-1β induced IL-8 release from CYNOM-K1 cells, experiment 2 [6]: 1.1 nM | IC50 [3]: 0.208 nM | IC50, inhibition of IL-1 alpha induced IL-8 release in HeLa cells (GL IgG2) [4]: 0.0162 nM | IC50, inhibition of IL-1 beta induced IL-8 release in HeLa cells (GL IgG2) [4]: 0.0069 nM
B11: Antibody 9GL IgG2 (antibody, V domains shown)
VH: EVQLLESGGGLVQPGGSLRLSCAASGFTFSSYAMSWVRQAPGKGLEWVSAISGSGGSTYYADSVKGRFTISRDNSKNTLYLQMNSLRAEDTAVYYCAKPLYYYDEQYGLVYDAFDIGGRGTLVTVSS
VL: B6 VL with V76A, A78T, V96L, R97L, H99A, H100P, V101Q
notes: Germlined IgG2, lambda light chain; also called 28Q1 GL

IC50 [3]: 0.156 nM | IC50, inhibition of IL-1 beta induced IL-8 release in HeLa cells (IgG1) [4]: 0.0115 nM
B12: Antibody 9 IgG1 (antibody, V domains shown)
VH: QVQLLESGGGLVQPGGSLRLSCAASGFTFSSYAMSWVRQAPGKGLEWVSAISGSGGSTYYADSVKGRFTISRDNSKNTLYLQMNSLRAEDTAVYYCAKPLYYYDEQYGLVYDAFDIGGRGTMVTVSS
VL: B6 VL with V96L, R97L, H99A, H100P, V101Q
notes: as for B6

IC50, inhibition of human IL-1β induced IL-8 release from HeLa cells [5]: 95.9 nM
B13: Antibody 1 IgG1 (antibody, V domains shown)
VH: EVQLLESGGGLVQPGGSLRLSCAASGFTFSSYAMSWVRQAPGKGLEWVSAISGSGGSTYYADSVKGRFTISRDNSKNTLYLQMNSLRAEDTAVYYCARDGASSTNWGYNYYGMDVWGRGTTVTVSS
VL: QAVLTQPSSASGTPGQRVTISCSGSSSNIGSNYVFWYQQFPGTAPQLLVKWNNQRPSGVPDRFSGSKSGTSASLAISGLRSEDEADYYCAAWDDSLSGLVFGGGTKLTVL

IC50 [3]: 0.256 nM | IC50, inhibition of IL-1 beta induced IL-8 release in HeLa cells (IgG1) [4]: 0.0775 nM
B14: Antibody 2 IgG1 (antibody, V domains shown)
VH: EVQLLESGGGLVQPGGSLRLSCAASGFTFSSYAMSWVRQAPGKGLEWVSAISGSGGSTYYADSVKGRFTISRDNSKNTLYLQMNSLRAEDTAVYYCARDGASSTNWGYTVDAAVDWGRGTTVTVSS
VL: B13 VL with S95H, S97E, G98Q, V100H
notes: as for B6

IC50 [3]: 0.469 nM | IC50, inhibition of IL-1 beta induced IL-8 release in HeLa cells (IgG1) [4]: 0.0494 nM
B15: Antibody 3 IgG1 (antibody, V domains shown)
VH: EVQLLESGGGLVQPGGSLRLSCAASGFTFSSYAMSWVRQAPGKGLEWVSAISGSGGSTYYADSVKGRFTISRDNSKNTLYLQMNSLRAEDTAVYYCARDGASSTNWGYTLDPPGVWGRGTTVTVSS
VL: B13 VL with S95A, L96A, S97R, G98V, V100L
notes: as for B6

IC50 [1]: 0.201 nM
B16: MoD1b IL1R1 (Fc fusion, human;mouse, UniProt P14778 18-42, looked up, not shown: a dimerising Fc or GST)
chain: LEADKCKEREEKIILVSSANEIDVRKCPLTPNKMHGDTITWYKDDSKTPVSTEQASRIHQHKEKLWFVPAKVEDSGHYYCVVRNSSYCLRIKISAKFVENEPNLCYNAQAIFKQKLPVAGDGGLVCPYMEFFKNENNELPKLQWYKDCKPLLLDNIHFSGVKDRLIVMNVAEKHRGNYTCHASYTYLGKQYPITRVIEFITLEENKPTRPVIVSPANETMEVDLGSQIQLICNVTGQLSDIAYWKWNGSVIDEDDPVLGEDYYSVENPANKRRSTLITVLNISEIESRFYKHPFTCFAKNTHGIDAAYIQLIYPVTNFQK
notes: range 1-42;range 45-56;range 54-336
